From PMC2879526

Assays:
[1] = molecular target: T1, THAP zinc finger of hTHAP1 (C62S/C67S) (Homo sapiens, UniProt Q9NVV9 1-81, C62S;C67S); test: fluorescence anisotropy
T1 sequence: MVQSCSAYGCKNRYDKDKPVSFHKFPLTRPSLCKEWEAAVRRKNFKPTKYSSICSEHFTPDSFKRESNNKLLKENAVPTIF

[2] = molecular target: T2, THAP zinc finger of hTHAP1 K24A (Homo sapiens, UniProt Q9NVV9 1-81, K24A); test: fluorescence anisotropy
T2 sequence: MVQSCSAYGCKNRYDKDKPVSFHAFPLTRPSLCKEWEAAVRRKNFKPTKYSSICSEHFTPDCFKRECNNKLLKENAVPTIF

Binder	Kd [1] [nM]	binding result [2]
rrm1 16-bp (THABS) (dsDNA) DNA 1: GCTTGTGTGGGCAGCG DNA 2: CGCTGCCCACACAAGC	480 ± 60	–
non-specific 16-bp DNA (dsDNA) DNA 1: CGATTTGAATTTTAAC DNA 2: GTTAAAATTCAAATCG	–	binds
